Source: PMC9969416 (Endocrinology, 2023)

Target: the molecule itself
Assay: crystal structure

B1: ligand-binding domain (LBD) of human RXRα (residues 223-462) (domain or fragment)
chain: TSSANEDMPVERILEAELAVEPKTETYVEANMGLNPSSPNDPVTNICQAADKQLFTLVEWAKRIPHFSELPLDDQVILLRAGWNELLIASFSHRSIAVKDGILLATGLHVHRNSAHSAGVGAIFDRVLTELVSKMRDMQMDKTELGCLRAIVLFNPDSKGLSNPAEVEALREKVYASLEAYCKHKYPEQPGRFAKLLLRLPALRSIGLKCLEHLFFFKLIGDTPIDTFLMEMLEAPHQMT
  binding result: binds
